test system: Escherichia coli TOP10; assay: shrunken log2 fold change of peptide-encoding DNA abundance (4.5 h post-induction vs induction); higher = less antimicrobial activity (less host growth inhibition); conditions: time post-induction: 4.5 h; library: site-saturation at positions 5, 18, 19, 20
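Note: peptides expressed intracellularly from a pBAD plasmid library in pooled LB shake-flask culture, induced with 0.3% L-arabinose, DNA abundance read by NGS, three biological replicates, DESeq2 with apeglm shrinkage.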

Sequence	shrunken log2 fold change
RRIRERPPRLPRPRPRPDHIPRP	-0.537
RRIRPRPPRLPRPRPRPNENPRP	-0.348
RRIRFRPPRLPRPRPRPIRFPRP	-0.233
RRIRWRPPRLPRPRPRPTPHPRP	0.427
RRIRGRPPRLPRPRPRPYLVPRP	0.15
RRIRYRPPRLPRPRPRPDLEPRP	-0.0757
RRIRSRPPRLPRPRPRPQHCPRP	-0.0942
RRIRKRPPRLPRPRPRPFFVPRP	0.461
RRIRMRPPRLPRPRPRPEWCPRP	0.234
RRIRSRPPRLPRPRPRPISGPRP	-0.176
RRIRGRPPRLPRPRPRPTMLPRP	0.52
RRIRWRPPRLPRPRPRPEVQPRP	0.69
RRIRWRPPRLPRPRPRPWIQPRP	0.0861
RRIRFRPPRLPRPRPRPQHEPRP	-0.25
RRIRLRPPRLPRPRPRPLIDPRP	-0.258
RRIRARPPRLPRPRPRPFYGPRP	-0.0165
RRIRRRPPRLPRPRPRPRGRPRP	0.319
RRIRSRPPRLPRPRPRPPHNPRP	-0.0338
RRIRGRPPRLPRPRPRPWTKPRP	0.0647
RRIRIRPPRLPRPRPRPPMFPRP	-0.181
RRIRGRPPRLPRPRPRPCVWPRP	0.921
RRIRVRPPRLPRPRPRPYMNPRP	-0.962
RRIRYRPPRLPRPRPRPQVMPRP	-0.0105
RRIRRRPPRLPRPRPRPPKQPRP	0.459
RRIRYRPPRLPRPRPRPVPTPRP	-0.0167

Sequence	shrunken log2 fold change
RRIRFRPPRLPRPRPRPYVHPRP	-1.75
RRIRPRPPRLPRPRPRPTRCPRP	0.279
RRIRQRPPRLPRPRPRPTDSPRP	-0.0401
RRIRRRPPRLPRPRPRPHSWPRP	0.333
RRIRARPPRLPRPRPRPTHHPRP	0.468
RRIRYRPPRLPRPRPRPFFNPRP	-0.811
RRIRQRPPRLPRPRPRPQMSPRP	-0.0844
RRIRCRPPRLPRPRPRPQGSPRP	0.0401
RRIRPRPPRLPRPRPRPWMQPRP	0.0452
RRIRGRPPRLPRPRPRPRSKPRP	0.781
RRIRVRPPRLPRPRPRPWRYPRP	0.0359
RRIRDRPPRLPRPRPRPPSAPRP	0.506
RRIRMRPPRLPRPRPRPGVLPRP	0.135
RRIRNRPPRLPRPRPRPNIQPRP	-0.748
RRIRNRPPRLPRPRPRPLNQPRP	-0.225
RRIRQRPPRLPRPRPRPAWNPRP	-0.206
RRIRERPPRLPRPRPRPSSNPRP	-0.0512
RRIRIRPPRLPRPRPRPKESPRP	-0.258
RRIRRRPPRLPRPRPRPPISPRP	0.0255
RRIRIRPPRLPRPRPRPASNPRP	-0.205
RRIRYRPPRLPRPRPRPYNQPRP	-0.922
RRIRYRPPRLPRPRPRPYRCPRP	0.0155
RRIRDRPPRLPRPRPRPGQCPRP	0.131
RRIRDRPPRLPRPRPRPFVNPRP	-0.254
RRIRYRPPRLPRPRPRPVSTPRP	-0.511

Sequence	shrunken log2 fold change
RRIRYRPPRLPRPRPRPYRSPRP	0.0135
RRIRYRPPRLPRPRPRPSHRPRP	-0.479
RRIRMRPPRLPRPRPRPPAKPRP	1.06
RRIRHRPPRLPRPRPRPCSEPRP	0.0248
RRIRKRPPRLPRPRPRPTIAPRP	0.541
RRIRYRPPRLPRPRPRPQRQPRP	-0.00525
RRIRDRPPRLPRPRPRPWLEPRP	0.098
RRIRCRPPRLPRPRPRPQLWPRP	0.366
RRIRYRPPRLPRPRPRPRLGPRP	0.0954
RRIRPRPPRLPRPRPRPFDSPRP	-0.0336
RRIRPRPPRLPRPRPRPRELPRP	0.39
RRIRVRPPRLPRPRPRPWYMPRP	-0.132
RRIRERPPRLPRPRPRPYRQPRP	-0.264
RRIRKRPPRLPRPRPRPCLHPRP	-0.0515
RRIRRRPPRLPRPRPRPCFQPRP	-0.0758
RRIRMRPPRLPRPRPRPSIMPRP	0.23
RRIRYRPPRLPRPRPRPYPFPRP	-0.0218
RRIRMRPPRLPRPRPRPYHRPRP	-0.141
RRIRHRPPRLPRPRPRPEMEPRP	-0.108
RRIRGRPPRLPRPRPRPIYWPRP	0.247
RRIRDRPPRLPRPRPRPQFYPRP	-0.129
RRIRARPPRLPRPRPRPSGLPRP	0.0354
RRIRPRPPRLPRPRPRPYYHPRP	-0.794
RRIRQRPPRLPRPRPRPWRFPRP	-0.113
RRIRSRPPRLPRPRPRPCAMPRP	-0.173

Sequence	shrunken log2 fold change
RRIRLRPPRLPRPRPRPHCPPRP	0.0666
RRIRVRPPRLPRPRPRPIQIPRP	-1.33
RRIRPRPPRLPRPRPRPELPPRP	0.175
RRIRFRPPRLPRPRPRPRKHPRP	0.0878
RRIRLRPPRLPRPRPRPWWVPRP	0.0559
RRIRGRPPRLPRPRPRPWPEPRP	0.29
RRIRSRPPRLPRPRPRPLDTPRP	-0.157
RRIRVRPPRLPRPRPRPNGYPRP	-0.199
RRIRLRPPRLPRPRPRPVGMPRP	-0.0033
RRIRDRPPRLPRPRPRPVWSPRP	0.065
RRIRPRPPRLPRPRPRPQKTPRP	-0.0227
RRIRIRPPRLPRPRPRPWHIPRP	0.0542
RRIRYRPPRLPRPRPRPPGHPRP	-0.337
RRIRSRPPRLPRPRPRPQWKPRP	-0.0984
RRIRGRPPRLPRPRPRPQCDPRP	0.479
RRIRRRPPRLPRPRPRPMQMPRP	0.54
RRIRLRPPRLPRPRPRPLGHPRP	-0.0858
RRIRSRPPRLPRPRPRPFHLPRP	-0.321
RRIRVRPPRLPRPRPRPYIVPRP	-0.00649
RRIRVRPPRLPRPRPRPLIDPRP	0.119
RRIRCRPPRLPRPRPRPVDYPRP	-0.258
RRIRLRPPRLPRPRPRPVLDPRP	-0.366
RRIRARPPRLPRPRPRPHCNPRP	0.717
RRIRYRPPRLPRPRPRPHGIPRP	0.0191
RRIRCRPPRLPRPRPRPIYCPRP	-0.14

Sequence	shrunken log2 fold change
RRIRDRPPRLPRPRPRPWKIPRP	0.0112
RRIRMRPPRLPRPRPRPGYPPRP	0.0749
RRIRNRPPRLPRPRPRPWSWPRP	0.266
RRIRNRPPRLPRPRPRPIMNPRP	-0.619
RRIRVRPPRLPRPRPRPWNDPRP	-0.0722
RRIRPRPPRLPRPRPRPMRTPRP	0.357
RRIRKRPPRLPRPRPRPSPEPRP	0.525
RRIRSRPPRLPRPRPRPVIQPRP	-0.178
RRIRKRPPRLPRPRPRPTICPRP	-0.0104
RRIRLRPPRLPRPRPRPSGDPRP	0.0305
RRIRARPPRLPRPRPRPQSYPRP	-0.118
RRIRYRPPRLPRPRPRPWLTPRP	-0.558
RRIRARPPRLPRPRPRPGCLPRP	0.419
RRIRERPPRLPRPRPRPIVEPRP	0.0517
RRIRWRPPRLPRPRPRPNQQPRP	-0.0465
RRIRVRPPRLPRPRPRPVTEPRP	-0.164
RRIRRRPPRLPRPRPRPMWAPRP	0.161
RRIRKRPPRLPRPRPRPHSRPRP	0.147
RRIRHRPPRLPRPRPRPELHPRP	0.00184
RRIRNRPPRLPRPRPRPKVAPRP	0.0368
RRIRTRPPRLPRPRPRPSWSPRP	-0.196
RRIRQRPPRLPRPRPRPVMGPRP	0.0224
RRIRGRPPRLPRPRPRPCMGPRP	0.289
RRIRVRPPRLPRPRPRPNHCPRP	-0.181
RRIRNRPPRLPRPRPRPEFPPRP	0.0125

Sequence	shrunken log2 fold change
RRIRTRPPRLPRPRPRPHHYPRP	-0.46
RRIRLRPPRLPRPRPRPDLVPRP	0.00214
RRIRARPPRLPRPRPRPVRAPRP	0.924
RRIRIRPPRLPRPRPRPIIDPRP	-0.372
RRIRDRPPRLPRPRPRPSMKPRP	-0.198
RRIRERPPRLPRPRPRPFVMPRP	-0.345
RRIRHRPPRLPRPRPRPPWWPRP	0.18
RRIRFRPPRLPRPRPRPNDNPRP	-0.616
RRIRGRPPRLPRPRPRPWCIPRP	-0.153
RRIRKRPPRLPRPRPRPLFSPRP	-0.0137
RRIRVRPPRLPRPRPRPNPTPRP	-0.325
RRIRFRPPRLPRPRPRPQHLPRP	-1.22
RRIRRRPPRLPRPRPRPGCHPRP	0.119
RRIRLRPPRLPRPRPRPWMTPRP	-0.0262
RRIRERPPRLPRPRPRPWITPRP	-0.00674
RRIRCRPPRLPRPRPRPPDTPRP	0.269
RRIRLRPPRLPRPRPRPYLPPRP	-0.18
RRIRVRPPRLPRPRPRPIAAPRP	0.454
RRIRQRPPRLPRPRPRPQLVPRP	0.128
RRIRMRPPRLPRPRPRPIMNPRP	0.284
RRIRNRPPRLPRPRPRPPLGPRP	0.331
RRIRDRPPRLPRPRPRPKTHPRP	0.0785
RRIRNRPPRLPRPRPRPQEYPRP	-0.578
RRIRARPPRLPRPRPRPYYTPRP	-0.762
RRIRMRPPRLPRPRPRPSASPRP	1.7

Reference: the supplement of paper PMC9112550, “Optimization of the antimicrobial peptide Bac7 by deep mutational scanning” (BMC Biology, 2022)
